Test results published in PMC11117473 (2024).
Ends that are not written are not given here.

How the values were obtained:
Assay in all cases: fluorescence polarization
NCOA1 NR2 peptide [1] = molecular target: T1, NCOA1 NR2 peptide (Homo sapiens)
T1 chain: Fluorescein-LTARHKILHRLLQEGSPSD

NCOA1 NR2 peptide [2] = molecular target: T2, NCOA1 NR2 peptide (Homo sapiens)
T2 chain: Fluorescein-LTARHKILHRLLQEGSPSD

NCOA1 NR2 peptide [3] = molecular target: T3, NCOA1 NR2 peptide (Homo sapiens)
T3 chain: Fluorescein-LTARHKILHRLLQEGSPSD

B1: VDR LBD 156-453 (protein)
chain: LSDEQMQIINSLVEAHHKTYDDSYSDFVRFRPPVREGPVTRSASRAASLHSLSDASSDSFNHSPESVDTKLNFSNLLMMYQDSGSPDSSEEDQQSRLSMLPHLADLVSYSIQKVIGFAKMIPGFRDLTAEDQIALLKSSAIEIIMLRSNQSFSLEDMSWSCGGPDFKYCINDVTKAGHTLELLEPLVKFQVGLKKLKLHEEEHVLLMAICLLSPDRPGVQDHVRIEALQDRLCDVLQAYIRIQHPGGRLLYAKMIQKLADLRSLNEEHSKQYRSLSFQPEHSMQLTPLVLEVFGSEVS
In the case of B1, the Kd (NCOA1 NR2 peptide [1]) is reported as 540 nM, the Kd (NCOA1 NR2 peptide [2]) is reported as 500 nM and the Kd (NCOA1 NR2 peptide [3]) is reported as 480 nM.
